Reference: US20240262906A1 (WELLMARKER BIO, published 2024)

Target: T1, IGSF1 overexpressed on cells (NCI-H292 IGSF1 O/E; HEK293E IGSF1 O/E) (human, UniProt Q8N6C5 581-1336)
T1 construct: Membrane protein expressed from a commercial vector (OriGene RC209621); also called IGSF1 antigen in cells
T1 sequence: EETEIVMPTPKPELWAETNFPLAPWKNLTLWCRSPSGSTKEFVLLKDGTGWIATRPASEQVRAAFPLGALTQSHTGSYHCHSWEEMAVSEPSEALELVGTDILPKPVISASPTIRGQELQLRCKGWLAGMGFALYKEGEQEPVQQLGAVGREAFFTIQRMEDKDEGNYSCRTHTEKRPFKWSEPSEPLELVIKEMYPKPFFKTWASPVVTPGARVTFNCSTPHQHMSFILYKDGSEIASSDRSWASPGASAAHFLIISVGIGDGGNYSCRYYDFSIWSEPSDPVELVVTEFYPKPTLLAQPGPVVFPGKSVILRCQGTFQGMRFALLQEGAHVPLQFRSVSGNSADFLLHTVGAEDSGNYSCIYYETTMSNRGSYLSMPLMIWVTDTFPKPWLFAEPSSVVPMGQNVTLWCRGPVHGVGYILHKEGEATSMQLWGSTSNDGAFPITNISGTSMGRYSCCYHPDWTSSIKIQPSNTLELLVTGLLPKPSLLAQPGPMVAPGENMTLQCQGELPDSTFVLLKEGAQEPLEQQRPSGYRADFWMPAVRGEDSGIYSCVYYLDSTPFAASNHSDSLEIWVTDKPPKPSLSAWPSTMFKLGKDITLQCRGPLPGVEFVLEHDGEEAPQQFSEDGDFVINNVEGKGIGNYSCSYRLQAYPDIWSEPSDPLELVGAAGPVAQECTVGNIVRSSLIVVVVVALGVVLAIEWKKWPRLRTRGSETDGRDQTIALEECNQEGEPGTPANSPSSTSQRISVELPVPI
Test: flow cytometry on NCI-H292 IGSF1 O/E cells, FITC anti-human IgG detection
Experimental: Specifically, the medium of NCI-H292 IGSF1 O/E cells and NCI-H292 MOCK cells was removed, washed once with PBS, and then treated with 2 ml of 0.25% trypsin-EDTA, and the cells were isolated. The isolated cells were diluted with 8 ml of PBS (hereinafter referred to as FACS buffer) containing 2% FBS and 0.05% sodium azide, and then the supernatant was removed by centrifugation at 1,200 rpm for 1 minute. Then, the cells were resuspended in FACS buffer to 1×10⁵ cells/ml. Thereafter, 1 ml of each was dispensed in a FACS tube, and the supernatant was removed by centrifugation at 1,200 rpm for 1 minute.
After the reaction was completed, 1 ml of FACS buffer was added to each tube, and the supernatant was removed by centrifugation at 1,200 rpm for 1 minute. This process was performed a total of two times. […]
Finally, after removal of the supernatant, the remaining pellet was resuspended in 200 μl of FACS buffer and analyzed by FACS. For FACS analysis, FITC fluorescence value labeled in each cell was measured using a BD LSRFortessa™ flow cytometer, and then the results were analyzed using a FlowJo software, and EC50 value was calculated using a sigma plot program. […]

B1: WM-A1-3389 antibody (antibody, human IgG1, kappa, V domains shown)
VH: QVQLVQSGAEVKRPGSSVKVSCKASGGTFSTYAISWVRQAPGQGLEWMGRIIPFVGTVDYAQKFQDRVTITADKSTNTAYMELSSLRSEDTAVYYCVRDGGRSYFDSWGPGILVTVSS
VL: QFVLTQPPSVSAAPGQDVIISCSGNTSNIGSNLVSWFQQFPETAPKLLIYDNHKRPSGISDRFSGTKSGTSASLAISGLQSEDEADYYCVAWDDSLNGYVFGTGTKVTVLR
notes: Human antibody from a phage library, converted to whole IgG; also called anti-IGSF1 antibody
- EC50: ~69 nM
